Results published in the RNAGym collection of RNA variant scans (doi:10.7554/elife.90254).

B1: OR4K15 (parent)
chain: GUUAACGGUCAUAGGCCAUGGAAACUAGGAGCACCAUUUCGCUGCCAGUGAAGAAAUGAACAAAGAAAAUCUGGGCCAGGCAGGCAUCAAAAGAAAUAGUCUUGCGCUCAACCAGAAAGUCUGUAAUCAUUUUAAGGGUA

Variants of: B1
Assay: self-cleavage, relative activity (ratio to wild type); higher = more cleavage; in vitro, sequencing; the parent is a self-cleaving ribozyme

Variant | self-cleavage
GUUAACGGUCAUAGGCCAUGGAAACUGGGAGCACCAUUUCGCUGCCAGUGAAGAAAUGAACAAAGAAAAUCUGGGCCAGGCAGGCAUCAAAAGACAUAGUCUUGCGCUCAACCAGAAAGUCUGUAAUCAUUUUAAGGGUA [A27G A95C] | 0.48
GUUAACGGUCAUAGGCCAUGGAAACUGGGAGCACCAUUUCGCUGCCAGUGAAGAAAUGAACAAAGAAAAUCUGGGCCAGGCAGGCAUCAAAAGAAAUAGUCUUGCGCUCAACCAGAAAGUCUGUGAUCAUUUUAAGGGUA [A27G A125G] | 0.26
GUUAACGGUCAUAGGCCAUGGAAACUGGGAGCACCAUUUCGCUGCCAGUGAAGAAAUGAACAAAGAAAAUCUGGGCCAGGCAGGCAUCAAAAGAAAUAGUCUUGCGCUCAACCAGAAAGUCUGUAAUCAUUUUAAGGGUA [A27G] | 1.1
GUUAACGGUCAUAGGCCAUGGAAACUGGGAGCACCUUUUCGCUGCCAGUGAAGAAAUGAACAAAGAAAAUCUGGGCCAGGCAGGCAUCAAAAGAAAUAGUCUUGCGCUCAACCAGAAAGUCUGUAAUCAUUUUAAGGGUA [A27G A36U] | 0.85
GUUAACGGUCAUAGGCCAUGGAAACUGGGAGCACCAUUUCGCUGCCAGUGAAGAAAUGAACAAAGAAAAUCUGGGCCAGGCAGGCAUCAGAAGAAAUAGUCUUGCGCUCAACCAGAAAGUCUGUAAUCAUUUUAAGGGUA [A27G A90G] | 1.41
GUUAACGGUCAUAGGCCAUGGAAACUGGGAGCACCAUUUCGCUGCCAGUGAAGAAAUGAACAAAGAAAAUCUGGGCCAGGCAGGCAUCAAAAGAAAUGGUCUUGCGCUCAACCAGAAAGUCUGUAAUCAUUUUAAGGGUA [A27G A98G] | 0.77
GUUAACGGUCAUAGGCCAUGGAAACUGGGAGCACCAUUUCGCUGCCAGUGAAGAAAUGAACGAAGAAAAUCUGGGCCAGGCAGGCAUCAAAAGAAAUAGUCUUGCGCUCAACCAGAAAGUCUGUAAUCAUUUUAAGGGUA [A27G A62G] | 1.46
GUUAACGGUCAUAGGCCAUGGAAACUGGGAGCACCAUUUCGCUGCCAGUGAAGAAAUGAACUAAGAAAAUCUGGGCCAGGCAGGCAUCAAAAGAAAUAGUCUUGCGCUCAACCAGAAAGUCUGUAAUCAUUUUAAGGGUA [A27G A62U] | 1.15
GUUAACGGUCAUAGGCCAUGGAAACUGGGAGCACCAUUUCGCUGCCAGUGAAGAAAUGAACAAAGAAAAUCUGGGCCUGGCAGGCAUCAAAAGAAAUAGUCUUGCGCUCAACCAGAAAGUCUGUAAUCAUUUUAAGGGUA [A27G A78U] | 0.34
GUUAACGGUCAUAGGCCAUGGAAACUGGGAGCACCAUUUCGCUGCCAGUGAAGGAAUGAACAAAGAAAAUCUGGGCCAGGCAGGCAUCAAAAGAAAUAGUCUUGCGCUCAACCAGAAAGUCUGUAAUCAUUUUAAGGGUA [A27G A54G] | 1.37
GUUAACGGUCAUAGGCCAUGGAAACUCGGAGCACCAUUUCGCUGCCAGUGAAGAAAUGAACAAAGAAAAUCUGGGCCAGGCAGGCAUCAAGAGAAAUAGUCUUGCGCUCAACCAGAAAGUCUGUAAUCAUUUUAAGGGUA [A27C A91G] | 0.64
GUUAACGGUCAUAGGCCAUGGAAACUGGGAGCACCAUUUCGCUGCCGGUGAAGAAAUGAACAAAGAAAAUCUGGGCCAGGCAGGCAUCAAAAGAAAUAGUCUUGCGCUCAACCAGAAAGUCUGUAAUCAUUUUAAGGGUA [A27G A47G] | 0.68
GUUAACGGUCAUAGGCCAUGGAAACUGGGAGCCCCAUUUCGCUGCCAGUGAAGAAAUGAACAAAGAAAAUCUGGGCCAGGCAGGCAUCAAAAGAAAUAGUCUUGCGCUCAACCAGAAAGUCUGUAAUCAUUUUAAGGGUA [A27G A33C] | 1.32
GUUAACGGUCAUAGGCCAUGGAAACUGGGAGCACCAUUUCGCUGCCAGUGAAGAAAUGAACAAAGAUAAUCUGGGCCAGGCAGGCAUCAAAAGAAAUAGUCUUGCGCUCAACCAGAAAGUCUGUAAUCAUUUUAAGGGUA [A27G A67U] | 2.19
GUUAACGGUCAUAGGCCAUGGAAACUGGGAGCACCAUUUCGCUGCCAGUGAAGAAAUGAACAAAGAAAAUCUGGGCCAGGCAGGCAUCAAAAGAAAUAGUCUUGCGCUCAACCUGAAAGUCUGUAAUCAUUUUAAGGGUA [A27G A114U] | 0.16
GUUAACGGUCAUAGGCCAUGGAAACUGGGAGCACCAUUUCGCUGCCAGUGAAGAAAUGAACAAAGAAAAUCUGGGCCAGGCAGGCAUCAAAAGAAAUAGUCUUGCGCUCAACCAGAGAGUCUGUAAUCAUUUUAAGGGUA [A27G A117G] | 1.15
GUUAACGGUCAUAGGCCAUGGAAACUGGGAGCACCAUUUCGCUGCCAGUGAAGAAAUGAACAAAGAAAAUCUGGGCCAGGCAGGCAUCAAAAGAAAUAGUCUUGCGCUCAACCAGAUAGUCUGUAAUCAUUUUAAGGGUA [A27G A117U] | 0.53
GUUAACGGUCAUAGGCCAUGGAAACUGGGAGCACCAUUUCGCUGCCAGUGAAGAAAUGAACAAAGAAAAUCUGGGCCAGGCAGGCAUCUAAAGAAAUAGUCUUGCGCUCAACCAGAAAGUCUGUAAUCAUUUUAAGGGUA [A27G A89U] | 2
GUUAACGGUCAUAGGCCAUGGAAACUGGGAGCACCAUUUCGCUGCCAGUGAAGAAAUGAACAAAGCAAAUCUGGGCCAGGCAGGCAUCAAAAGAAAUAGUCUUGCGCUCAACCAGAAAGUCUGUAAUCAUUUUAAGGGUA [A27G A66C] | 1.24
GUUAACGGUCAUAGGCCAUGGAAACUCGGAGCACCAUUUCGCUGCCAGUGAAGAAAUGAACAAAGAAAAUCUGGGCCAGGCAGGCAUCAAAAGAAAUAGUCUUGCGCUCAACCAGAAAGUCUGUAAUCAUUUUAUGGGUA [A27C A135U] | 2.25
GUUAACGGUCAUAGGCCAUGGAAACUGGGAGCACCAUUUCGCUGCCAGUGAAGAAAUGAACAAAGAAUAUCUGGGCCAGGCAGGCAUCAAAAGAAAUAGUCUUGCGCUCAACCAGAAAGUCUGUAAUCAUUUUAAGGGUA [A27G A68U] | 1.1

Variant | self-cleavage
GUUAACGGUCAUAGGCCAUGGAAACUGGGAGCACCAUUUCGCUGCCAGUGAGGAAAUGAACAAAGAAAAUCUGGGCCAGGCAGGCAUCAAAAGAAAUAGUCUUGCGCUCAACCAGAAAGUCUGUAAUCAUUUUAAGGGUA [A27G A52G] | 1.44
GUUAACGGUCAUAGGCCAUGGAAACUGGGAGCACCAUUUCGCUGCCAGUGAAGAAAUGAACAUAGAAAAUCUGGGCCAGGCAGGCAUCAAAAGAAAUAGUCUUGCGCUCAACCAGAAAGUCUGUAAUCAUUUUAAGGGUA [A27G A63U] | 1.83
GUUAACGGUCAUAGGCCAUGGAAACUGGGAGCACCAUUUCGCUGCCAGUGAAGAAAUGAACAAAGAAAAUCUGGGCCAGGCAGGCAUCAAAAGAAAUAGUCUUGCGCUCGACCAGAAAGUCUGUAAUCAUUUUAAGGGUA [A27G A110G] | 0.1
GUUAACGGUCAUAGGCCAUGGAAACUGGGAGCACCAUUUCGCUGCCAGUGAAGAAAUGAACAAAGAAAAUCUGGGCCAGGCAGGCAUCAAAAGAAAUAGUCUUGCGCUCCACCAGAAAGUCUGUAAUCAUUUUAAGGGUA [A27G A110C] | 0.43
GUUAACGGUCAUAGGCCAUGGAAACUGGGAGCACCAUUUCGCUGCCAGUGAAGAAAUGAACAAAGAAAAUCUGGGCCAGGCGGGCAUCAAAAGAAAUAGUCUUGCGCUCAACCAGAAAGUCUGUAAUCAUUUUAAGGGUA [A27G A82G] | 0.33
GUUAACGGUCAUAGGCCAUGGAAACUGGGAGCACCAUUUCGCUGCCAGUGAAGAAAUGAACAAAGAAAAUCUGGGCCAGGCCGGCAUCAAAAGAAAUAGUCUUGCGCUCAACCAGAAAGUCUGUAAUCAUUUUAAGGGUA [A27G A82C] | 0.1
GUUAACGGUCAUAGGCCAUGGAAACUGGGCGCACCAUUUCGCUGCCAGUGAAGAAAUGAACAAAGAAAAUCUGGGCCAGGCAGGCAUCAAAAGAAAUAGUCUUGCGCUCAACCAGAAAGUCUGUAAUCAUUUUAAGGGUA [A27G A30C] | 1.14
GUUAACGGUCAUAGGCCAUGGAAACUGGGUGCACCAUUUCGCUGCCAGUGAAGAAAUGAACAAAGAAAAUCUGGGCCAGGCAGGCAUCAAAAGAAAUAGUCUUGCGCUCAACCAGAAAGUCUGUAAUCAUUUUAAGGGUA [A27G A30U] | 1.61
GUUAACGGUCAUAGGCCAUGGAAACUGGGAGCACCAUUUCGCUGCCAGUGAAGAAGUGAACAAAGAAAAUCUGGGCCAGGCAGGCAUCAAAAGAAAUAGUCUUGCGCUCAACCAGAAAGUCUGUAAUCAUUUUAAGGGUA [A27G A56G] | 1.57
GUUAACGGUCAUAGGCCAUGGAAACUGGGAGCACCAUUUCGCUGCCAGUGAAGAAAUGAACAAAGAAAAUCUGGGCCAGGCAGGCAUCAACAGAAAUAGUCUUGCGCUCAACCAGAAAGUCUGUAAUCAUUUUAAGGGUA [A27G A91C] | 1.42
GUUAACGGUCAUAGGCCAUGGAAACUGGGAGCACCAUUUCGCUGCCAGUGAAGAAAUGAACAAAGAAAAUCUGGGCCAGGCAGGCAUCAAGAGAAAUAGUCUUGCGCUCAACCAGAAAGUCUGUAAUCAUUUUAAGGGUA [A27G A91G] | 1.22
GUUAACGGUCAUAGGCCAUGGAAACUGGGAGCACCAUUUCGCUGCCAGUGAAGAGAUGAACAAAGAAAAUCUGGGCCAGGCAGGCAUCAAAAGAAAUAGUCUUGCGCUCAACCAGAAAGUCUGUAAUCAUUUUAAGGGUA [A27G A55G] | 1.57
GUUAACGGUCAUAGGCCAUGGAAACUGGGAGCACCAUUUCGCUGCCAGUGAAGAAAUGAACAAAGAAAAUCUGGGCCAGGCAGGCAUCAAAAGAAGUAGUCUUGCGCUCAACCAGAAAGUCUGUAAUCAUUUUAAGGGUA [A27G A96G] | 1.1
GUUAACGGUCAUAGGCCAUGGAAACUGGGAGCACCAUUUCGCUGCCAGUGAAGAAAUGAACAAAGAAAAUCUGGGCCAGGCAGGCAUCAAAAGAAAUAGUCUUGCGCUCAACCAGUAAGUCUGUAAUCAUUUUAAGGGUA [A27G A116U] | 0.05
GUUAACGGUCAUAGGCCAUGGAAACUGGGAGCACCAUUUCGCUGCCAGUGAAGAAAUGAACAAAGAAAAUCUGGGCCAGGCAGGCAUCAAAAGAAAUAGUCUUGCGCUCAACCAGAAGGUCUGUAAUCAUUUUAAGGGUA [A27G A118G] | 0.47
GUUAACGGUCAUAGGCCAUGGAAACUGGGAGCACCAUUUCGCUGCCAGUGAAGAAAUGAACAAAGAAAAUCUGGGCCAGGCAGGCAUCAAAAGAAAUAGUCUUGCGCUCAACCAGAAUGUCUGUAAUCAUUUUAAGGGUA [A27G A118U] | 0.36
GUUAACGGUCAUAGGCCAUGGAAACUGGGAGCACCAUUUCGCUGCCAGUGAAGAAAUGAACAAAGAAAAUCUGGGCCAGGCAGGCAUCAAAAGAAAUAGUCUUGCGCUCAUCCAGAAAGUCUGUAAUCAUUUUAAGGGUA [A27G A111U] | 0.04
GUUAACGGUCAUAGGCCAUGGAAACUGGGAGCACCAUUUCGCUGCCAGUGAAGAAAUGAACAAAGAAAAUCUGGGCCAGGCAGGCAUCAAACGAAAUAGUCUUGCGCUCAACCAGAAAGUCUGUAAUCAUUUUAAGGGUA [A27G A92C] | 1.36
GUUAACGGUCAUAGGCCAUGGAAACUGGGAGCACCAUUUCGCUGCCAGUGAAGAAAUGUACAAAGAAAAUCUGGGCCAGGCAGGCAUCAAAAGAAAUAGUCUUGCGCUCAACCAGAAAGUCUGUAAUCAUUUUAAGGGUA [A27G A59U] | 1.24
GUUAACGGUCAUAGGCCAUGGAAACUGGGAGCACCAUUUCGCUGCCAGUGAAGAAAUGGACAAAGAAAAUCUGGGCCAGGCAGGCAUCAAAAGAAAUAGUCUUGCGCUCAACCAGAAAGUCUGUAAUCAUUUUAAGGGUA [A27G A59G] | 1.03
